From patent US8241610B2, “Adjuvant combinations of liposomes and mycobacterial lipids for immunization compositions and vaccines” (Statens Serum Institut, priority 2003, dated 2012)

Experiments:
blood lymphocytes = assay: IFN-gamma release from blood lymphocytes of immunized mice re-stimulated in vitro with antigen (ELISA); conditions: mouse, in vivo, sc
antigen-specific IgG = system: antigen-specific IgG; parameters: species or system mice; conditions: mouse, in vivo, sc

Row | Molecule | Immune response: release of IFN-gamma from blood lymphocytes (blood lymphocytes) | IgG1, antigen-specific levels (midpoint titres) (antigen-specific IgG) | IgG2a, antigen-specific levels (midpoint titres) (antigen-specific IgG)
1 | Tetanus toxoid: Tetanus toxoid from Statens Serum Institut; given in total lipids/DDA | 52500 ± 13500 |  | 
2 | OVA: Ovalbumin, Sigma Aldrich; given in total lipids/DDA (protein, UniProt P01012 2-386, looked up) Ovalbumin: GSIGAASMEFCFDVFKELKVHHANENIFYCPIAIMSALAMVYLGAKDSTRTQINKVVRFDKLPGFGDSIEAQCGTSVNVHSSLRDILNQITKPNDVYSFSLASRLYAEERYPILPEYLQCVKELYRGGLEPINFQTAADQARELINSWVESQTNGIIRNVLQPSSVDSQTAMVLVNAIVFKGLWEKAFKDEDTQAMPFRVTEQESKPVQMMYQIGLFRVASMASEKMKILELPFASGTMSMLVLLPDEVSGLEQLESIINFEKLTEWTSSNVMEERKIKVYLPRMKMEEKYNLTSVLMAMGITDVFSSSANLSGISSAESLKISQAVHAAHAEINEAGREVVGSAEAGVDAASVSEEFRADHPFLFCIKHIATNAVLFFGRCVSP | 793 ± 81 | 2500 | <100
